Reference: US20220169747A1 (CERTIS THERAPEUTICS, published 2022)
Bridges are numbered along the chain shown (N, C = ends).

Experiments:
[1] = target: T1, control irrelevant peptide H-LEEKKGNYVVTDHC-NH2 coupled to KLH (also: coupled to KLH); test: ELISA, antigen on the plate, anti-mouse Ig-alkaline phosphatase, pNPP, A405nm
T1 construct: Synthetic negative control; also called control peptide; negative control peptide-KLH
T1 peptide: H-LEEKKGNYVVTDHC-NH2
Experimental: (§1) Polystyrene 96-well plates were coated with 3% FCS in PBS for one hour at RT. A final peptide concentration of 1 mg/mL was achieved by diluting the peptide in 0.1% acetic acid. This peptide solution was further diluted to 30 μg/ml in 3% FCS-PBS. Plates were incubated with the linear or cyclic peptide immunogen coupled to KLH, HER2-ECD or negative control peptide-KLH, in dilution buffer (3% FCS-PBS) for one hour at RT. […] Following washing, plates were then incubated with anti-mouse Ig-Alkaline phosphatase (Sigma A-3688), (1:3000 dilutions) for one hour at RT.

[2] = target: T2, cyclic HER2 peptide immunogen H-GCPLHNQEVTAEDGTQRC-NH2 coupled to KLH (human, disulfide 2-18 (inferred); also: coupled to KLH); test: ELISA, antigen on the plate, antibody at 10 ug/mL, anti-mouse Ig-alkaline phosphatase, pNPP, A405nm
T2 construct: also called cyclised peptide; circularised peptide
T2 peptide: H-GCPLHNQEVTAEDGTQRC-NH2
Experimental: as §1

[3] = target: T3, linear HER2 peptide immunogen H-CPLHNQEVTAEDGTQR-NH2 coupled to KLH (also: coupled to KLH); test: as above
T3 construct: Synthetic peptide; also called linear peptide; KLH-linear peptide
T3 peptide: H-CPLHNQEVTAEDGTQR-NH2
Experimental: as §1

[4] = target: T4, recombinant ErbB4/HER4 ECD (UniProt Q15303 26-651, limits assumed); test: ELISA, plate coated with recombinant HER4 ECD, anti-mouse antibody-alkaline phosphatase, pNPP, A405 nm
T4 construct: extracellular domain; also called ErbB4 ECD
T4 sequence (looked up): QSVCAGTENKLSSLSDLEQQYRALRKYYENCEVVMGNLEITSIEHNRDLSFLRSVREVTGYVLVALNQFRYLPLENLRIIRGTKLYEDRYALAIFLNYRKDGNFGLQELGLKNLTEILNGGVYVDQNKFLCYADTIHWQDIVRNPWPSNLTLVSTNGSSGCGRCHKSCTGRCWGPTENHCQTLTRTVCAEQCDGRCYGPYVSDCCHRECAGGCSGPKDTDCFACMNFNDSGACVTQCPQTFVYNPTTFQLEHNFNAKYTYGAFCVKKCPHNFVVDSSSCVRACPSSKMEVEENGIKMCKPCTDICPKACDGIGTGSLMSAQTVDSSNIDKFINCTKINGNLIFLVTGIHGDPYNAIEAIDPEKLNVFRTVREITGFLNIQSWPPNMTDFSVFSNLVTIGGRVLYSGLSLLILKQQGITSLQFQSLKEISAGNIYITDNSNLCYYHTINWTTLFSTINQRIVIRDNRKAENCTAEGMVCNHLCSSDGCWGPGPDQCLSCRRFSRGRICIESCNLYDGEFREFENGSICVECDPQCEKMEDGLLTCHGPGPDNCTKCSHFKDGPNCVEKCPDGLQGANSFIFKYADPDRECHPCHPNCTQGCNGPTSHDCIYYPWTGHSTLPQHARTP
Experimental: (§2) Polystyrene 96-well plates were coated with […], 3 μg/mL recombinant ErbB2 ECD, ErbB3 ECD, ErbB4 ECD or EGFR501 in PBS overnight at 4° C. The plates were blocked with 3% FCS in PBS for one hour at room temperature (RT). Plates were incubated with 10 μg/mL serially diluted purified antibody along with appropriate controls for one hour at RT. Following washing three times, plates were incubated with anti-mouse IgG AP conjugate (1:2000 dilutions) for one hour at RT.

[5] = target: T5, recombinant ErbB3/HER3 ECD (UniProt P21860 20-643, limits assumed); test: ELISA, plate coated with recombinant HER3 ECD, anti-mouse antibody-alkaline phosphatase, pNPP, A405 nm
T5 construct: extracellular domain; also called ErbB3 ECD
Experimental: as §2

[6] = target: T6, recombinant sEGFR ectodomain (EGFR501) (UniProt P00533 25-645, limits assumed); test: ELISA, plate coated with recombinant sEGFR ectodomain, anti-mouse antibody-alkaline phosphatase, pNPP, A405 nm
T6 construct: extracellular domain; also called EGFR/HER1 ectodomain
Experimental: as §2

B1: mAb104 (antibody, IgG1, V domains shown)
VH: EVQLQQSGPELVKPGASVKISCKASGYSFTGYFMHWVRQSHVRSLEWIGRINPYNGDIRYNQNFKDKASLTVDKSSSTAYMELHRLTSEDSAVFYCASLNFAYWGQGTPVTVSA
VL: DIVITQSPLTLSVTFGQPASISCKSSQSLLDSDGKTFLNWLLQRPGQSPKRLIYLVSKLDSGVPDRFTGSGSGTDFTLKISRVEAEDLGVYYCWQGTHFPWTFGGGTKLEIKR
notes: Murine monoclonal purified from hybridoma supernatant
[1]
  binding result: no binding (tested: 10 ug/mL)
[2]
  binding result: binds
[3]
  binding result: binds
[4]
  binding result: no binding (tested: 10000 ng/ml)
[5]
  binding result: no binding (tested: 10000 ng/ml)
[6]
  binding result: no binding (tested: 10000 ng/ml)

B2: mAb106 (antibody, IgG1, V domains shown)
VH: QIQLVQSGPELKKPGETVKISCKASGYTFTDYGMNWVKQAPGKGLKWMGWINTYTGKPTYDDDFKGRFAFSLETSASTAYLQINNLKNEDMATYFCARRFLNTVAGRSVYFDYWGQGTTLTVSS
VL: QIVLTQSPALMSVSPGEKVTMTCSVSSSVGSMYWYQQKPRSSPKPWIYLTSNLASGVPPRFSGSGSGTSYSLTISSMEGEDAATYYCQQWSSNPPTFGAGTKLELKR
notes: as for B1
[1]
  binding result: no binding (tested: 10 ug/mL)
[2]
  binding result: binds
[3]
  binding result: binds
